The chains are these.
B1: Zinc finger homeobox protein 3, residues 2244 to 2299; numbered along this chain, Q15911 (parent)
chain: SSRTRFTDYQLRVLQDFFDANAYPKDDEFEQLSNLLNLPTRVIVVWFQNARQKARK

± gives the uncertainty stated by the source.

Variants of B1 are the subject of this series. Put plainly: abundance fitness (aPCA) (normalised: wild type 0, dead -1); higher = more abundant; growth selection in yeast, the domain comes from the species named. The following applies: Homo sapiens.
Consider SSRTRFTDYQLRVLQDFFDANAYPKDDEFEQLSNLENLPTRVIVVWFQNARQKARK [L36E], for which the abundance fitness is -0.892 ± 0.18.

Consider SSRTRFTDYQLRVLQDFFDANAYPKDDEFEQLSNLTNLPTRVIVVWFQNARQKARK [L36T], for which the abundance fitness came out at 0.013 ± 0.13.

With SSRTRFTDYQLRVLQDFFDANAYPKDDEFEQLSNLWNLPTRVIVVWFQNARQKARK [L36W], the abundance fitness was -0.811 ± 0.15.

For SSRTRFTDYQIRVLQDFFDANAYPKDDEFEQLSNLLNLPTRVIVVWFQNARQKARK [L11I], the abundance fitness amounted to 0.055 ± 0.17.

For SSRTRFTDYQRRVLQDFFDANAYPKDDEFEQLSNLLNLPTRVIVVWFQNARQKARK [L11R], the abundance fitness was -0.141 ± 0.09.

Take SSRTRFTDYQYRVLQDFFDANAYPKDDEFEQLSNLLNLPTRVIVVWFQNARQKARK [L11Y]: the abundance fitness is -0.404 ± 0.2.

Regarding SSRTRFTDYQLRVLKDFFDANAYPKDDEFEQLSNLLNLPTRVIVVWFQNARQKARK [Q15K], the abundance fitness is -0.243 ± 0.18.

Consider SSRTRFTDYQLRVLQDFFDANANPKDDEFEQLSNLLNLPTRVIVVWFQNARQKARK [Y23N], for which the abundance fitness was determined as 0.013 ± 0.16.

For the variant SSRTRFTDYQLRVLQDFFDANAIPKDDEFEQLSNLLNLPTRVIVVWFQNARQKARK [Y23I], the abundance fitness was 0.092 ± 0.13.

As for SSRTRFTDYQLRVLQDFFDANAAPKDDEFEQLSNLLNLPTRVIVVWFQNARQKARK [Y23A], the abundance fitness was -0.188 ± 0.085.

Regarding SSRTRFTDKQLRVLQDFFDANAYPKDDEFEQLSNLLNLPTRVIVVWFQNARQKARK [Y9K], the abundance fitness is 0.162 ± 0.13.

Regarding SSRTRFTDYQLRVLQDFFDANAYPKDDEFEQLSNLLNLPTRVIVVWFQNARQKARF [K56F], the abundance fitness is -0.089 ± 0.24.

As for SSRTRFTDYQLRVLQDFFDANAYPKDDEFEQLSNLLNLPTRVIVVWFQNARQKARI [K56I], the abundance fitness was -0.302 ± 0.16.

With SSRTRFTDYQLRVLQDFFDANAYPKDDEFEQLSNLLNLPTRVMVVWFQNARQKARK [I43M], the abundance fitness is -0.439 ± 0.14.

SSRCRFTDYQLRVLQDFFDANAYPKDDEFEQLSNLLNLPTRVIVVWFQNARQKARK [T4C]: the abundance fitness is -0.632 ± 0.17.

With SSRPRFTDYQLRVLQDFFDANAYPKDDEFEQLSNLLNLPTRVIVVWFQNARQKARK [T4P], the abundance fitness was -0.154 ± 0.12.

For SSRERFTDYQLRVLQDFFDANAYPKDDEFEQLSNLLNLPTRVIVVWFQNARQKARK [T4E], the abundance fitness is -0.357 ± 0.15.

As to SSRTRFTDYQLRELQDFFDANAYPKDDEFEQLSNLLNLPTRVIVVWFQNARQKARK [V13E], the abundance fitness is -0.237 ± 0.12.

For the variant SSRTRFTDYQLRDLQDFFDANAYPKDDEFEQLSNLLNLPTRVIVVWFQNARQKARK [V13D], the abundance fitness was -0.692 ± 0.19.

For SWRTRFTDYQLRVLQDFFDANAYPKDDEFEQLSNLLNLPTRVIVVWFQNARQKARK [S2W], the abundance fitness is -0.255 ± 0.14.

Consider SKRTRFTDYQLRVLQDFFDANAYPKDDEFEQLSNLLNLPTRVIVVWFQNARQKARK [S2K], for which the abundance fitness was -0.194 ± 0.18.

Take SSRTRFTDYQLRVLQDFFDANAYPKDDEFEQLSNLLNLPTRVIVVWFGNARQKARK [Q48G]: the abundance fitness was -0.029 ± 0.085.

Regarding SSRTRFTDYQLRVLQDFFDANAYPKDDEFEQLSNLLNLPTRVIVVWFENARQKARK [Q48E], the abundance fitness is 0.086 ± 0.14.

For the variant SSRTRFTDYQLRVLQDFFDANAYPKDDEFEQLSGLLNLPTRVIVVWFQNARQKARK [N34G], the abundance fitness is -0.058 ± 0.13.

As to SSRTRFTDYQLRVLQDFFDANAYPKDDEFEQLSNLLNLPTRVIVVWFQNARQDARK [K53D], the abundance fitness worked out at 0.202 ± 0.11.

With SSRTRFTDYQLRVLQDFFDANAYPKDDEFEQLSNLLNLPTRVIVVWFQVARQKARK [N49V], the abundance fitness was -0.362 ± 0.11.

For SSRTRFTDYQLRVLQDFFDANAYPKDDEFEQLSNLLNLPTRVIVVWFQCARQKARK [N49C], the abundance fitness was -0.163 ± 0.12.

As to SSRTRFTDYQLSVLQDFFDANAYPKDDEFEQLSNLLNLPTRVIVVWFQNARQKARK [R12S], the abundance fitness was -0.149 ± 0.069.

In the case of SSRTRFTDYQLMVLQDFFDANAYPKDDEFEQLSNLLNLPTRVIVVWFQNARQKARK [R12M], the abundance fitness is -0.378 ± 0.12.

As to SSRTRFTDYQLRVLQDFFDANAYPLDDEFEQLSNLLNLPTRVIVVWFQNARQKARK [K25L], the abundance fitness was -0.136 ± 0.084.

Take SSRTRFTDYQLRVLQDFFDANAYPADDEFEQLSNLLNLPTRVIVVWFQNARQKARK [K25A]: the abundance fitness is -0.075 ± 0.095.

As for SSRTRFTDYQLRVLQDFFDANAYPSDDEFEQLSNLLNLPTRVIVVWFQNARQKARK [K25S], the abundance fitness is -0.133 ± 0.11.

As to SSRTRFTDYQLRVLQDFFDANAYPHDDEFEQLSNLLNLPTRVIVVWFQNARQKARK [K25H], the abundance fitness was -0.267 ± 0.16.

Consider SSRTRFTDYQLRVLQDFFDANAYPIDDEFEQLSNLLNLPTRVIVVWFQNARQKARK [K25I], for which the abundance fitness is -0.226 ± 0.19.

Consider SSRTRFTDYQLRVLQDFFDANAYPKDDEFEQLSNLLNLPTRVIQVWFQNARQKARK [V44Q], for which the abundance fitness was -0.015 ± 0.15.

Take SSRTRNTDYQLRVLQDFFDANAYPKDDEFEQLSNLLNLPTRVIVVWFQNARQKARK [F6N]: the abundance fitness is -0.52 ± 0.1.

For the variant SSRTRYTDYQLRVLQDFFDANAYPKDDEFEQLSNLLNLPTRVIVVWFQNARQKARK [F6Y], the abundance fitness is -0.06 ± 0.093.

With SSRTRFTDYQLRVLQDFFDANAYPKDDEFEQLSNLLNLPTRVIVVWDQNARQKARK [F47D], the abundance fitness is -0.751 ± 0.13.

On to SSRTRFTDYQLRVLQDFFDANAYPKDDEFEQLSNLLNLPTRVIVVWPQNARQKARK [F47P], for which the abundance fitness is -0.89 ± 0.12.

With SSRTRFTDYQLRVLQDFFDANAYPKDDEFEQLSNLLNLPTRVIVVWQQNARQKARK [F47Q], the abundance fitness is -1.02 ± 0.17.

Regarding CSRTRFTDYQLRVLQDFFDANAYPKDDEFEQLSNLLNLPTRVIVVWFQNARQKARK [S1C], the abundance fitness was 0.079 ± 0.21.

For SSRTRFTDYQLRVLQDFFDANAYPKDDEFEQLSNLLNLPTRVIVVPFQNARQKARK [W46P], the abundance fitness was -1.07 ± 0.22.

In the case of SSRTRFTDYQLRVLQDFFDANAYPKDDEFEQLSNLLNLPTRVIVVLFQNARQKARK [W46L], the abundance fitness is -1.09 ± 0.15.

As to SSRTRFTDYQLRVLQDFFDANAYPKDDEFEQLSNLLNLPTRVIVVDFQNARQKARK [W46D], the abundance fitness was -1.14 ± 0.29.

Turning to SSRTRFTDYQLRVLQDFFDANAYPKDIEFEQLSNLLNLPTRVIVVWFQNARQKARK [D27I], the abundance fitness was -0.17 ± 0.15.

For the variant SSRTRFTDYQLRVLQDFFDANAYPKDPEFEQLSNLLNLPTRVIVVWFQNARQKARK [D27P], the abundance fitness is -0.388 ± 0.1.

Consider SSRTRFTDYQLRVLQDFFDANAYPKDLEFEQLSNLLNLPTRVIVVWFQNARQKARK [D27L], for which the abundance fitness was -0.17 ± 0.074.

Values taken from the Human Domainome abundance scans (Beltran et al. 2025).
